Source: PMC4772727
Like-named read-outs stand apart in the source and are kept apart here.

T1: GST-ETS1 (Homo sapiens, UniProt P14921 1-441)
T1 sequence: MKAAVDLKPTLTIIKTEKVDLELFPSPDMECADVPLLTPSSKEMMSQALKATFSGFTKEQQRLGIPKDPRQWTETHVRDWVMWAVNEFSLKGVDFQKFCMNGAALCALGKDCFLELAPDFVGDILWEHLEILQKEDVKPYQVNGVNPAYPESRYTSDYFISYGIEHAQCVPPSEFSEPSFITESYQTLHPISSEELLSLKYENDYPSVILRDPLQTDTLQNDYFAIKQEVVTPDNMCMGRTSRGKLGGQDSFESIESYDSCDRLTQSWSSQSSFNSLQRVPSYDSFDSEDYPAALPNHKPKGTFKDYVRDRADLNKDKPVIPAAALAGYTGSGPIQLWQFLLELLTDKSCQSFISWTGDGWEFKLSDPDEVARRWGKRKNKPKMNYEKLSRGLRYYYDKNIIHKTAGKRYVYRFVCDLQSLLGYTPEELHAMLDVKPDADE

T2: GST-p52 (WT) (Homo sapiens, UniProt Q00653 1-454)
T2 sequence: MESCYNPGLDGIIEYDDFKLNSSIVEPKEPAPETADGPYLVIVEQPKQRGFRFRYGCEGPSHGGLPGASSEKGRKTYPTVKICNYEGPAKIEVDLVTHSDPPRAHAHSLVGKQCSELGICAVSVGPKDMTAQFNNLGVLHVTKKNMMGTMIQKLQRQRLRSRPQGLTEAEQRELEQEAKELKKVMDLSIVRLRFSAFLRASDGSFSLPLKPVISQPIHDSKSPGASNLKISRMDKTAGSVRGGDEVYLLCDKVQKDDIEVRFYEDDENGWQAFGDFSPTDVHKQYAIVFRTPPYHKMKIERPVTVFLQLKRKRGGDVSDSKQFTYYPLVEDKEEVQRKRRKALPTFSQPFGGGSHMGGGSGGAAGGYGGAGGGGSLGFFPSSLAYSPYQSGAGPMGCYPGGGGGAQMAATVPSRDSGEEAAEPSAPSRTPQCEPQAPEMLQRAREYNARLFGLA

T3: GST-p52 (WT);GST-ETS1 (Homo sapiens;Homo sapiens, UniProt Q00653;P14921 1-454;1-441, |)
T3 sequence 1: T2 sequence
T3 sequence 2: T1 sequence

B1: WT TERT promoter probe (dsDNA)
DNA 1: GTCCCGACCCCTCCCGGGTCCCCGGC
DNA 2: GCCGGGGACCCGGGAGGGGTCGGGAC
B2: C250T TERT promoter probe (dsDNA)
DNA 1: GTCCCGACCCCTTCCGGGTCCCCGGC
DNA 2: GCCGGGGACCCGGAAGGGGTCGGGAC

Legend:
Assay in all cases: EMSA
GST-ETS1 [1] = biological target: T1, GST-ETS1
GST-p52 (WT) [2] = biological target: T2, GST-p52 (WT)
GST-ETS1 [3] = biological target: T1, GST-ETS1; remark: listed apart in the source
GST-p52 (WT) [4] = biological target: T2, GST-p52 (WT); remark: listed apart in the source
GST-p52 (WT);GST-ETS1 = biological target: T3, GST-p52 (WT);GST-ETS1

Binder	binding result (GST-ETS1 [1])	binding result (GST-p52 (WT) [2])	binding result (GST-ETS1 [3])	binding result (GST-p52 (WT) [4])	binding result (GST-p52 (WT);GST-ETS1)
B1	no binding	binds			
B2			binds	binds	binds
